Data taken from the nanobody polyreactivity screen of Harvey et al. (2022).

assay: yeast display, Sf9 membrane polyspecificity reagent, FACS + sequencing; frameworks hold sequencing errors
How it was run: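 Galactose induction of a Saccharomyces cerevisiae BJ5465 synthetic nanobody display library ran 36–48 hours. The cells were then stained for 1 hour at 4 °C with 10% biotinylated, detergent-solubilized Sf9 membrane reagent, pulled down on streptavidin microbeads and FACS-sorted into low and high (top ~1%) gates on expression and reagent-binding fluorescence. Labels for polyreactivity follow the gate of origin.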

| Sequence | polyreactivity (PSR sort gate) |
| --- | --- |
| QVQIVESGGGLVQAGGSLRLTCAASGSIFDVYTMGWYRQAPGKERELVAAISYSGGRTNYADSVKGRFTISRDNAKNTVYLQIYSLKPEDTAVYYCATTDGRTAWGVKDYYAKYNYWGQGTQVTVSS | low polyreactivity |
| QVQIVESGGGLVQAGGTLRLSCAASGFIFSSYGMGWYRKAPGKERELVADISGGGSTNYADSVKGRFTISRDNAKNSVYLQMNSLKPEETAVYYCNAQLIRSAAYDYWGQGTQVSVSS | low polyreactivity |
| QVQIVESGGGLVQAGRSLRLSCAASGSTFGSYAMGWYRQAPGKDRELVAAISASGGSTYYADSVKGRFTISRDNAKHTVYLQMNSLKPEDTAVYYCATVYYSARYTYWGQGTQVTVSS | high polyreactivity |
| QVQIVESGGGLVQAGVSLRLSCAASGLTIGVYAMGWYRQAPGKERELVAAISWSGGTTYYADSVKGRFTISRDNAKINFYLQMNSLKPEDTAVYYCAADYYTDVDYWGQGNQVTVSS | low polyreactivity |
| QVQIVESGGGLVQARGSIRFRCAASGRIIGTNTMGWYRQAPGKERELVAAITWSGGSTYYADSVKGRFTISRDKEKTTVYLQMYSLKPEDTAVYYCNVESEYAYHWPVDYWGQGTQVSVSS | low polyreactivity |
| QVQIVESGGGLVQAVGSLRLSCAASGFTFTYNAMGWYRQAPGKERELVAAISSGGRTYYADSVKGRFTISRDNAKNTVYLQMNSLKPEDTAVYYCNADPDQYTLRSITNDEDYWGQGTQVTVSS | low polyreactivity |
| QVQIVESGGGLVQPGGSLRLSCAASGRIFGRNAMGWYRQAPGKEWELVAAITTSASRTYYADSVKGRFTISRDNAKNTVYLQMNSLKPEDTAVYYCAARPSWYWYKGDYWGQGTQVTVSS | high polyreactivity |
| QVQIVESGGLLVQAGGSLRLSCAASGFIFNPNAMGWYRQAPGKERELVAAIRWSGGSTYYADSVQGRFTISRDNEKNTVYLQMNSLKPDDTAVYYCAANPRTTRYGRGYWGQGTQVSVSS | high polyreactivity |
| QVQIVESGGRLVQAGGSLRLSCAASGSIFVWYAMGWYRQAPGKERELVSRITSGGRTNYADSVKGRFTISRDNAKNTVYLQMNSLKPEDTAVYYCAAGRVSWSPYYYWGQATQVTVSS | high polyreactivity |
| QVQIVESGRGLVQAGGSLRLTCAASGINFHFNDMGWYRQAPRKQRELVAAIDSTGSTNYADSVKGRFTISRDNAKNTVYLQMNSLKPEDTAVYYCAVLNHRVDSVLTRYYYWGQGTQVTVSS | low polyreactivity |
| QVQIVESRGGLVQAGGSLRLSCAASGSTIPYYAMGRYRQAPGKERELVARIRWNGDSTYYADSVKGRFTISRDIAKNTVYLQINSLKPEDTAVYYCARQGYTLYRTRNRYDYWGKGTQVTVSS | high polyreactivity |
| QVQIVESRGGLVQAGGSLRLSCDASGRTILIYAMGWYRQAPRKERELVAAITSGGRTKYADSVKGRFTISRDNGKNTVFLQMNSQKPEDTAVYYCAAESNRLRYYYWGQGSQVTVSS | high polyreactivity |
| QVQIVETGGGLVQAGGSLRLSCAASGFIFSNYARGRYRQAPGKERELVAAISWSGGRTYYADSVKGRFTISRDNAKNSVYLQMNSLKPEDTAVYYCATRYGSASGREYEYWGQGTQVTVSS | high polyreactivity |
| QVQIVHSGGGLVQAGGSLRLSCAASGRTIGGNAMGWYRQAPGKEWELVAAISYSDGSTYYADSVKGRFTISRDNAKNTVYLQMNSLKPEDTAVYYCAADRYAILLYAEDYWGQGTQVTVSS | low polyreactivity |
| QVQIVQSGGGLVQAGGSLRLSCAASGSTITYNAMGWYRQAPGKERELVAAITVSDGSTYYADSVKGRFTISRDNAKNTVYLQMNSLKPEDTAVYYCNAYAVYLRYLWYDFWGQGTQVTVSS | low polyreactivity |
| QVQLAESGGCLVQAGGSLRLSCAASGIIFYFYAMGWYRPAPGKERELVAAISGTGGRTYYADSVKGRFTISRDNAKNTVSLQMNSLKPDDTAVYYCNADDTPVPSIRFDYWGQGTQVTVSS | low polyreactivity |
| QVQLAESGGGLVQAGGSLRLSCAASGRIFAFYAMGWYRQAPGKERELVAIISSAGRPYYADSVKGRFTISRDNAKYTVYLQMNSLKREDTAVYYCAAGGRARTYYYWGQGTQVTVSS | high polyreactivity |
| QVQLAESGGGLVQAGGSLRLSCAASGRIFARNAMGWYRQAPGKERELVAAISWSGGRTYYADSVKGRFTISRDNAKNTVYLQMNSLKPEDTAVYYCAADHYPWWAWEFDYWGQGTQVTVSS | low polyreactivity |
| QVQLAESGGGLVQAGGSLRLSCAPSGSTFEINAMGWYRQAPGKETELVAAISRGGSTNYADSVKGRFSISRDNAKNTVYLQMNSLKPEDSAVYDCARDPRFRYYRVSYANDQEFEYSGQGTQVTVSS | high polyreactivity |
| QVQLAESGGGLVQAGGSLRLSSAASGRTIGFNGMGWYRQAPGKERELVAAITWNGDSTYADSVKGRFTISRDNAKNTVYLQMNSLKPDDTAVYYCGAEVVAQMNYWGQGTQVTVSS | low polyreactivity |
| QVQLEDAGGGLVQAGGSLRLSCAASGRIIGWYTIGRYRQAPGKERELVATSSSSGASTYYADSVKGRFTISRDNAKNSVYFQMNSLKPEDTGVYYCAAQYYPYSFAHRYGYWGQGSQVTVSS | high polyreactivity |

| Sequence | polyreactivity (PSR sort gate) |
| --- | --- |
| QVQLEDSGGGLDQAGGSLRLSCAASGITFIRYAMVWYRQAPGKERELVAAIPTSGSSKFYADSVKGRFTISRDNAKNTVYLQMNSLKPEDTAVYYCAAVFRWARLYTFYGSKVDYWGQGTQVTVSS | high polyreactivity |
| QVQLEDSGGGLVQAGGRLRLSCAASGSIFFSYAMGWYRQAPGTERELVAGINWSGGSTYADCVKGRFTISRDNAKNTVYLQMNSQKPEDTAVYYCAAKYYSERSRYHYWGLGTQVTVSS | low polyreactivity |
| QVQLEDSGGGLVQAGGSLPLSCAASGGTFTDYAMGWYRQAPGKERELVAAISSVGSTNYADSVKGRFTISRDNAKNTVYLQMNSLKPEDTAVYYCAVDYGRAVQVDSITYDFNYWGQGTQVNVSS | low polyreactivity |
| QVQLEDSGGGLVQAGGSLRLSCAASGSTFLYYARGWYRQAPGKERELVAAITSGGSTYYADSVKGRFTISRDNAKNTVYLQMNSLKPEDTAVYYCAAASRRGYYYWGQGTQVTVSS | high polyreactivity |
| QVQLEDSGGGLVQAGGTLRLRCAASGITFGTNDMGWYRKAPGKETELVAAIDGSGETYYADSVKGRFTISRDNAKNTVYLLMNSLKPVDTAVYYCAADVIYWFSGEYDYWGQGTQVIVSS | low polyreactivity |
| QVQLEDSGRGLFQAGGSLRLSCAASGSIVALYTMGWYRQAPGKEREFVAGIRTGGSTIYADSVKGRFTISRDNAKNTVYLQMNSRKPEDTPVYYDDWGQGTQVTVSS | low polyreactivity |
| QVQLEESAGGIVQAGGSLRFSCAASGSTISAYDIGCYRQEPGKEWELVAAITWIGGNTYYADSVKGRFTISRDTAKNTVYLQMNSLKPEDTEFYYCAAEEVPYDRDMDYWGQGTQVTVSS | low polyreactivity |
| QVQLEESAGRLVQAGGSLRLSCAASGFIISPYAMGWYRQAPGKERELVAAISWSGVYTYYADTVKGRFTISRDNAKNTVYLQMNSLKPEDSAVYYCATYGTVYYWGQGTQVTVST | high polyreactivity |
| QVQLEESAGRLVQAGGSLRLSCAASGYTFGYYAMGWYRQAPGKERQLVAAISWRGARTNYADSVKGRFTISRDNAKNTVYLQMNSLKPEDTAVYYCAAGYYYGYPPRDYWGQGTQVTVSS | high polyreactivity |
| QVQLEESAGRLVQARGSLRLSCAASGSTFGYNAMGWDSQAPGKARELVAALTRRGGRTYYADSVKGRFTISRDNAKNTVYLQMNSLKPEDTAVYYCAATSRGSGQRPGEAIIDYYYWGQGTQVTVSW | high polyreactivity |
| QVQLEESCGGLVQAGGSHRLSCAASGSTIYNNAMGWYRQAPRKERELVAAISSGGGITYYADSVKGRFTISRDNAKNSVYLQMNSLKPEDTAVYYCNARRIYLGYNYWGQGTQVTVSS | high polyreactivity |
| QVQLEESCGGLVQAGGSLRLSCAASGPIIRAYAMGWYRQAPGKERELVAAITRSGGSTYYADSVKGRFTISLDNAKNTVYLQMNSLKPEDTAVYYCNARTRYDDGYDSWGQGTQVTVSS | high polyreactivity |
| QVQLEESGAGLVQAGGSLRLSCAASGRTFWFYTMGLYRQAPGKERELVAAISSAGSTNYADSVKGRFTISRDNAKNTVYLQMNSLKPEDTAVYYCNARFPVGPSEDAVWYYPKYDYWGQGTQVTVSS | low polyreactivity |
| QVQLEESGAGLVQAGGSLRLSCAASGSIFNLYAMGWYRQAPGKEMELVAAINWSGGSTYYADSVKGRFTISRDNAKNTVYLQMNSLKPEDTAVYYCAADAYSTYYGYEGDYWGQGTQVTVSS | low polyreactivity |
| QVQLEESGAGLVQAGGSLRLSCAASVFTFCCTTMGRSRPAPGKESELVATISRTGGITYYADSVKGRFTISRDNAKNTVNLQMNSLKPEDTAVYYCILRYYWGQVTQVTVSS | high polyreactivity |
| QVQLEESGAGLVQAGGSLRLTCAASGSTFYSNVMGWYRQAPGKEREFVAGISGSGGSTYYADSVKGRFTISRDNGNISVYLLINSLKPEDPAVYYCKAVRYPRLLYYWGQGTQVNVSS | high polyreactivity |
| QVQLEESGGCLVQAGGSLRLSCAASGFTFRSYAMGWYRQAPGKERELVAAISSGGSTYYADSVKGRFTISRDNAKITVYLKMNSLKPEDTAVYYCAARRYYGYGHWGQGTHVTVSS | high polyreactivity |
| QVQLEESGGCLVQAGGSLRLSCAASGSTFVYNVMGWYRQAPGKERELVAAITSGVRTYYADSVKGRFTISRDNAKNTVYLQMNSLKPEDTAGYYCATGWRYAKYYYWGQGTQVTVSS | high polyreactivity |
| QVQLEESGGGIVQAGGSLRLSCAASGRIFRIYAMGWYRKAPGKERELVARITYSGGSTYYADSVKGRFTISRDKAKNTVYLQMNSLKPEDTAVFYCAADWLFYQYGYWGQGTQVTVSS | low polyreactivity |
| QVQLEESGGGLCQAGGSLRLSCAPSGSIFVSNAMVCYRQAPGKERELVAAITYNGGRTFYADSVKGRFTISRDNAKNTVYLQLNSLKPEDTAVYYFAADGSWHGYGYWGQGTQVTVSS | low polyreactivity |
